# Assay results from patent publication US12415868 (MINERVA BIOTECHNOLOGIES, dated 2025).
# T1: recombinant human NME7AB (human, UniProt Q9Y5B8 92-376)
# T1 construct: also called NME-AB; NME7 (in several passages)
# T1 sequence: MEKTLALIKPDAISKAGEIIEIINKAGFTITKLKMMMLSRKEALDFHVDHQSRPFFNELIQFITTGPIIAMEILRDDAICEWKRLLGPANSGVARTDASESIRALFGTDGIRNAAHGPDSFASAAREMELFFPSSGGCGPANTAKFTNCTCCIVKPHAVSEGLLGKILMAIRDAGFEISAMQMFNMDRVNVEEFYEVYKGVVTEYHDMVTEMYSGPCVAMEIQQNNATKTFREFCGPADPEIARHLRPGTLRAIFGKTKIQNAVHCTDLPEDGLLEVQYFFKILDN
# Experiments:
# [1] = target: T1, recombinant human NME7AB; experiment: ELISA, plate coated with recombinant NME7AB (FIG. 24)
# Experimental: The surface of the multi-well plate was coated with a recombinant $NME7AB$. Anti-$NME7AB$ antibodies were separately added to wells. Standard washes were performed and visualized by adding an HRP-conjugated secondary antibody. […] 7 of the 10 new anti-NME7 antibodies bound strongly to NME7$AB$. […] The surface of the multi-well plate was coated with a recombinant NME1-S120G dimers, which are also known to bind to the MUC1* extra cellular domain. Anti-NME7$AB$ antibodies were separately added to wells. Standard washes were performed and visualized by adding an HRP-conjugated secondary antibody.
# [2] = target: T1, recombinant human NME7AB; experiment: ELISA sandwich assay, HRP signal (FIG. 1A-1B)
# Experimental: Example 3—ELISA Assay Showing NME7$AB$ Simultaneously Binds to Two MUC1* Extra Cellular Domain Peptides Results are shown in FIG. 1. The PSMGFR peptide bearing a C-terminal Cysteine (PSMGFR-Cys) was covalently coupled to BSA using Imject Maleimide activated BSA kit (Thermo Fisher). PSMGFR-Cys coupled BSA was diluted to 10 ug/mL in 0.1M carbonate/bicarbonate buffer pH 9.6 and 50 uL was added to each well of a 96 well plate. After overnight incubation at 4° C., the plate was washed twice with PBS-T and a 3% BSA solution was added to block remaining binding site on the well. After 1 h at RT the plate was washed twice with PBS-T and NME7, diluted in PBS-T+1% BSA, was added at different concentrations. After 1h at RT the plate was washed 3× with PBS-T and anti-NM23-H7 (B-9). Santa Cruz. […] After 1 h at RT the plate was washed 3× with PBS-T and binding of NME7 was measured at 415 nm using ABTS solution (Pierce).
# After 1 h at RT the plate was washed 3× with PBS-T and His-Tagged PSMGFR peptide (PSMGFR-His) or biotinylated PSMGFR peptide (PSMGFR-biotin), diluted in PBS-T+1% BSA, was added at different concentration. […] After 1 h at RT the plate was washed 3× with PBS-T and binding of PSMGFR peptide to NME7 already bound to another PSMGFR peptide (which could not signal by anti-His antibody or by streptavidin) coupled BSA was measured at 415 nm using a ABTS solution (Pierce).
binding result [1],binding result [2],Binder
binds,–,"anti-NME7 monoclonal antibody 8F9A5A1 (antibody, V domains shown, Mouse monoclonal) VH: IQLVQSGPELKKPGETVKISCKASGYTFTNYGMNWVKQAPGKGLKWMGWINTYTGEPTYVDDFKGRFAFSLETSATTAYLQINNLKNEDTSTYFCARLRGIRPGPLAYWGQGTLVTVSA VL: EILLTQSPAIIAASPGEKVTITCSASSSVSYMNWYQQKPGSSPKIWIYGISNLASGVPARFSGSGSGTSFSFTINSMEAEDVATYYCQQRSSYPPTFGGGTKLEIKR"
–,binds,GTINVHDVETQFNQYKTEAASRYNLTISDVSVSDVPFPFSAQSGA (For the other ELISAs only surface-immobilized peptide is stated; also called MUC1* peptide; FLR) [PSMGFR peptide (MUC1* extra cellular domain peptide)]
